Results: the supplement of paper PMC12042874
± gives the uncertainty stated by the source.

assay: amyloid nucleation score (Sup35N fusion, yeast selection) (log enrichment); library NNK1; higher = more nucleation; inactive = no reads after selection
In short: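 Peptides of 20 random codons fused to Sup35N were expressed in psi-negative yeast, induced 24 hours with 100 μM copper sulfate, then grown 7 days at 30°C on medium lacking adenine and uracil. Input and output plasmid inserts were Illumina-sequenced. Nucleation score is the DiMSum log enrichment of output over input reads, centred on the mode score of non-aggregating sequences, excluding sequences with under 100 input reads. Random libraries had three technical output replicates.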

Point of comparison: QDWHDYLYGKFIGNNYGKYI, amyloid nucleation score 1.44 ± 0.47. Against it:
- PFRVLWTCITG — within error, -0.229 ± 1.4
- PFTHHHKCLVHRLLCRLQHE — within error, 0.616 ± 0.79
- PGCESARRLKLRVSLKLRGK — lower, -0.731 ± 1.1
- PGGYM — within error, 0.597 ± 0.52
- PGMKISSFCYTTMNHYNKSF — lower, -0.375 ± 1.2
- PGRSTHDIRSGPAEYTDSVC — within error, 0.487 ± 0.63
- PGSVDCTVGD — lower, -0.048 ± 0.65
- PHRFVN — lower, -0.188 ± 0.3
- PIFMVSLST — lower, -0.661 ± 0.66
- PIFSYFALFLGLIKHCIMSQ — lower, -0.238 ± 0.53
- PILSNLHIPMCPENVNGRGS — within error, 0.939 ± 0.33
- PISMKQVKREEMGFTPAVSS — lower, -0.352 ± 0.95
- PITFS — within error, 0.448 ± 0.68
- PKLRKLVSFYVSYIPGGGYG — lower, -0.106 ± 0.93
- PLEKVFVGPSADASNEEHRL — lower, -0.883 ± 1.1
- PLFLQCLWKNSLDLGMKDLS — within error, -0.327 ± 1.4
- PLLLNEVKRL — lower, 0.614 ± 0.29
- PLRNRNCVPYPHDCLSTSLI — lower, -0.816 ± 1.3
- PLRSRSGVSL — within error, 1.09 ± 0.62
- PLRTLPEQRCW — lower, -0.006 ± 0.29
- PLTKVFV — within error, 0.167 ± 0.82
- PLWAPNSSNFAINRNQWRFN — lower, 0.11 ± 0.57
- PMLFGVGRSFE — lower, -0.377 ± 0.27
- PMMLDDTPKRSKQPHWIGGH — within error, -0.584 ± 2.1
- PNNKE — lower, 0.638 ± 0.33
- PPLVHSAHYVMKILKSCN — within error, -1.5 ± 2.7
- PPMDIGLLPVRI — lower, -1.69 ± 1.7
- PQEFLFHTDQRSGCVITETS — lower, 0.179 ± 0.57
- PQVVRRGTHKVGRDNG — within error, 0.186 ± 1.6
- PRRHYGLRFGHGHLISVWLR — within error, 0.642 ± 0.41
- PRSVVSTEPSGTVGVPKENK — lower, -0.839 ± 0.62
- PRTYMIRNWKSTNNSLASPK — lower, -1.09 ± 1.5
- PRVLHTSVGFCLFNEYCSTT — higher, 2.45 ± 0.18
- PSRNLVRVDPFLGIRQMVSS — lower, -0.096 ± 1
- PSSKCGCWTTPEMIEGYRNL — lower, -0.119 ± 0.51
- PSSTNMGRDGWLDCQVHTFE — lower, -0.009 ± 0.28
- PSTREYFNCTKMAYYCIRRP — within error, -0.005 ± 1.7
- PTIFFDYAHYQTGRVLMAL — lower, 0.408 ± 0.35
- PTPILFCYQRCLGVYYMDET — lower, 0.198 ± 0.4
- PVDNYFIMTTHDKLNRPGHD — lower, -1.85 ± 1
- PVHNRVINRILGSSLEVLEN — lower, -0.123 ± 0.31
- PVLWASMVN — lower, -0.243 ± 0.49
- PVRVYIGGEDACMKSTKHMY — higher, 5.65 ± 0.085
- PVSFRILIVEVGLLCRLGAI — lower, 0.165 ± 0.75
- PWISFTKYKTLSYETHPGWF — within error, 0.544 ± 0.79
- PYAWSVNC — lower, -0.579 ± 0.4
- PYFINST — within error, 1.75 ± 0.53
- PYLGHR — lower, -1.55 ± 1.4
- PYLSRTRISIVNMCSICGLI — within error, 1.34 ± 0.44
- PYTWTTTVPSAPKGLF — lower, 0.096 ± 0.48
- PYVEIAWS — lower, -1.19 ± 0.85
- PYWLINIQEVTTD — within error, 0.654 ± 0.48
- PYYRLHANLPDEKRSTAILI — lower, -0.378 ± 0.55
- QAFGRLSLATQPLLMEPRRL — within error, 0.868 ± 0.41
- QAKPLMLNV — lower, -0.96 ± 1.9
- QAVSRHNGSSVVTVRFKLSP — within error, 1.49 ± 0.52
- QCSLRPVPRKDALSFLGLML — lower, -0.363 ± 0.35
- QCTVGASMD — lower, 0.169 ± 0.34
- QDGPIIFWDMVYFSFYFKH — lower, -0.925 ± 1.2
- QDKAVIANNRWTKMCGRLDC — within error, 1 ± 0.59
- QDRHYRNAKGSNSCYIRRKS — within error, 1 ± 0.35
- QDRYR — lower, 0.156 ± 0.56
- QERTMVLMLHMYYSGCAILM — within error, 0.761 ± 0.56

For PGVNKVHLYKESIIYLLAVS, the amyloid nucleation score was “inactive”.
With PINYVDRIRYVCMWCLFVAF the amyloid nucleation score was “inactive”.
With PLYLW the amyloid nucleation score was “inactive”.
With PMYWLPIFLS the amyloid nucleation score was “inactive”.
For PTDRVVLNCM, the amyloid nucleation score was “inactive”.
With PTRLLLVSDRVTVHELF the amyloid nucleation score was “inactive”.
In the case of QELPFRRSYNLSNCSDNWHS, the amyloid nucleation score is reported as “inactive”.
